# Experimental data as given in IntAct's records for PubMed 29039417.
# B1: Protein PTHB1 (Homo sapiens), Q3SYG4 (parent)
# chain: MSLFKARDWWSTILGDKEEFDQGCLCLANVDNSGNGQDKIIVGSFMGYLRIFSPHPAKTGDGAQAEDLLLEVDLRDPVLQVEVGKFVSGTEMLHLAVLHSRKLCVYSVSGTLGNVEHGNQCQMKLMYEHNLQRTACNMTYGSFGGVKGRDLICIQSMDGMLMVFEQESYAFGRFLPGFLLPGPLAYSSRTDSFLTVSSCQQVESYKYQVLAFATDADKRQETEQQKLGSGKRLVVDWTLNIGEQALDICIVSFNQSASSVFVLGERNFFCLKDNGQIRFMKKLDWSPSCFLPYCSVSEGTINTLIGNHNNMLHIYQDVTLKWATQLPHIPVAVRVGCLHDLKGVIVTLSDDGHLQCSYLGTDPSLFQAPNVQSRELNYDELDVEMKELQKIIKDVNKSQGVWPMTEREDDLNVSVVVSPNFDSVSQATDVEVGTDLVPSVTVKVTLQNRVILQKAKLSVYVQPPLELTCDQFTFEFMTPDLTRTVSFSVYLKRSYTPSELEGNAVVSYSRPTDRNPDGIPRVIQCKFRLPLKLICLPGQPSKTASHKITIDTNKSPVSLLSLFPGFASQSDDDQVNVMGFHFLGGARITVLASKTSQRYRIQSEQFEDLWLITNELILRLQEYFEKQGVKDFACSFSGSIPLQEYFELIDHHFELRINGEKLEELLSERAVQFRAIQRRLLARFKDKTPAPLQHLDTLLDGTYKQVIALADAVEENQGNLFQSFTRLKSATHLVILLIALWQKLSADQVAILEAAFLPLQEDTQELGWEETVDAAISHLLKTCLSKSSKEQALNLNSQLNIPKDTSQLKKHITLLCDRLSKGGRLCLSTDAAAPQTMVMPGGCTTIPESDLEERSVEQDSTELFTNHRHLTAETPRPEVSPLQGVSE
# partner: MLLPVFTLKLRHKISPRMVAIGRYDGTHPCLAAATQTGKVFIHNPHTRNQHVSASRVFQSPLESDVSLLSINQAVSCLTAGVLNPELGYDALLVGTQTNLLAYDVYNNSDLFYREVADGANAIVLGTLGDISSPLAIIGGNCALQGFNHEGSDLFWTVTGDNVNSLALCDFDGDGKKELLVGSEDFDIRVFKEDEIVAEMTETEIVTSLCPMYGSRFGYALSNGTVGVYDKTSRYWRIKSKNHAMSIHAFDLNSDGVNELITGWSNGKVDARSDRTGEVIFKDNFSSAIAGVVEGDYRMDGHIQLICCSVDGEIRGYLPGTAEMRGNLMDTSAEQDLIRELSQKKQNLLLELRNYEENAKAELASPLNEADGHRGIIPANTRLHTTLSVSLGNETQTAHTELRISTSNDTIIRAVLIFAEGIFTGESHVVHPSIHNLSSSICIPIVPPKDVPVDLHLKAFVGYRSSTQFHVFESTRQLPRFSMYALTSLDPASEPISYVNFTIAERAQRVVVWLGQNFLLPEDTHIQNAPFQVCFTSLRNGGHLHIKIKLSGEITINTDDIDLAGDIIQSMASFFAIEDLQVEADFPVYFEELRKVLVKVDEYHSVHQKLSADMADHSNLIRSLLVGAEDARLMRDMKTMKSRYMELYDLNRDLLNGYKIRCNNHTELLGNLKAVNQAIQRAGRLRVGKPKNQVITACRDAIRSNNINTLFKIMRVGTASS
# Variants of: B1
# Settings: with bbs2_human BBS2, Q9BXC9
row,Variant,effect of a mutation on the interaction
1,S745A,with no effect
2,S745E,with no effect
3,S745K,with no effect
4,A746E,with no effect
5,A746K,with no effect
6,D747A,with no effect
7,D747E,with no effect
8,D747K,with no effect
9,Q748A,with no effect
10,Q748E,with no effect
11,Q748K,disrupting interaction strength
12,Q748L,disrupting interaction strength
13,V749A,with no effect
14,V749E,with no effect
15,V749K,with no effect
16,A750E,with no effect
17,A750K,with no effect
18,I751A,with no effect
19,I751E,with no effect
20,I751K,with no effect
21,L752A,with no effect
22,L752E,with no effect
23,L752K,with no effect

row,Variant,effect of a mutation on the interaction
1,E753A,with no effect
2,E753K,with no effect
3,A754E,with no effect
4,A754K,with no effect
5,A755E,with no effect
6,A755K,with no effect
7,F756A,with no effect
8,F756E,with no effect
9,F756K,with no effect
10,L757A,with no effect
11,L757E,with no effect
12,L757K,with no effect
13,P758A,with no effect
14,P758E,with no effect
15,P758K,with no effect
16,L759A,with no effect
17,L759E,with no effect
18,L759K,with no effect
19,Q760A,with no effect
20,Q760E,with no effect
21,Q760K,with no effect
22,E761A,with no effect
23,E761K,with no effect

row,Variant,effect of a mutation on the interaction
1,D762A,with no effect
2,D762E,with no effect
3,D762K,with no effect
4,T763A,with no effect
5,T763E,with no effect
6,T763K,with no effect
7,Q764A,with no effect
8,Q764E,with no effect
9,Q764K,with no effect
10,E765A,with no effect
11,E765K,with no effect
12,L766A,with no effect
13,L766E,with no effect
14,L766K,with no effect
15,G767A,with no effect
16,G767E,with no effect
17,G767K,with no effect
18,W768A,with no effect
19,W768E,with no effect
20,W768K,with no effect
21,E769A,with no effect
22,E769K,with no effect
23,E770A,with no effect

row,Variant,effect of a mutation on the interaction
1,E770K,with no effect
2,T771A,with no effect
3,T771E,with no effect
4,T771K,with no effect
5,V772A,disrupting interaction strength
6,V772E,with no effect
7,V772K,with no effect
8,D773A,with no effect
9,D773E,with no effect
10,D773K,with no effect
11,A774E,with no effect
12,A774K,with no effect
13,A775E,with no effect
14,A775K,with no effect
15,A775T,disrupting interaction strength
16,I776A,with no effect
17,I776E,with no effect
18,I776K,with no effect
19,S777A,with no effect
20,S777E,with no effect
21,S777K,with no effect
22,H778A,with no effect
23,H778E,with no effect

row,Variant,effect of a mutation on the interaction
1,H778K,with no effect
2,L779A,with no effect
3,L779E,with no effect
4,L779K,with no effect
5,L780A,with no effect
6,L780E,with no effect
7,L780K,with no effect
8,K781A,with no effect
9,K781E,with no effect
10,T782A,with no effect
11,T782E,with no effect
12,T782K,with no effect
13,C783A,with no effect
14,C783E,with no effect
15,C783K,with no effect
16,L784A,with no effect
17,L784E,with no effect
18,L784K,with no effect
19,S785A,disrupting interaction strength
20,S785E,with no effect
21,S785K,with no effect
22,K786A,with no effect
23,K786E,with no effect

row,Variant,effect of a mutation on the interaction
1,S787A,with no effect
2,S787E,with no effect
3,S787K,with no effect
4,S788A,with no effect
5,S788E,with no effect
6,S788K,with no effect
7,K789A,with no effect
8,K789E,with no effect
9,E790A,with no effect
10,E790K,with no effect
11,Q791A,with no effect
12,Q791E,with no effect
13,Q791K,with no effect
14,Q791L,disrupting interaction strength
15,Q791S,disrupting interaction strength
16,A792E,with no effect
17,A792K,with no effect
18,L793A,with no effect
19,L793E,with no effect
20,L793K,with no effect
21,N794A,with no effect
22,N794E,with no effect
23,N794K,with no effect

row,Variant,effect of a mutation on the interaction
1,L795A,with no effect
2,L795E,with no effect
3,L795K,with no effect
4,N796A,with no effect
5,N796E,with no effect
6,N796K,with no effect
7,S797A,with no effect
8,S797E,with no effect
9,S797K,with no effect
10,Q798A,with no effect
11,Q798E,with no effect
12,Q798K,with no effect
13,L799A,with no effect
14,L799E,with no effect
15,L799K,with no effect
16,N800A,with no effect
17,N800E,with no effect
18,N800K,with no effect
19,I801A,with no effect
20,I801E,with no effect
21,I801K,with no effect
22,P802A,with no effect
23,P802E,with no effect

row,Variant,effect of a mutation on the interaction
1,P802K,with no effect
2,K803A,with no effect
3,K803E,with no effect
4,D804A,with no effect
5,D804E,with no effect
6,D804F,disrupting interaction strength
7,D804K,with no effect
8,T805A,with no effect
9,T805E,with no effect
10,T805I,disrupting interaction strength
11,T805K,with no effect
12,S806A,with no effect
13,S806E,with no effect
14,S806K,with no effect
15,Q807A,with no effect
16,Q807E,with no effect
17,Q807K,with no effect
18,L808A,with no effect
19,L808E,disrupting interaction strength
20,L808K,with no effect
21,K809A,with no effect
22,K809E,with no effect
